Primed or numbered codes have the meaning given here. No end group written: not given here. FITC′ = not defined here
Experiments:
[1] = mouse, in vivo
Experimental: CTP-β-gal was administered via the peritoneal cavity or a tail vein of mice. Four hr later, organs such as thymus, heart, spleen, liver and kidney were extracted. The organs rapidly frozen were sectioned with a microtome, and then incubated overnight in a X-gal reaction solution, followed by observation of the β-gal activity under a microscope.

HeLa cells = assay: Kinetics on the transduction of CTP-β-gal and PTD-β-gal; assay type: cell-based; conditions: trypsin prior to cell harvest
Experimental: The Membrane permeability of CTP-β-gal and PTD-β-gal was analyzed in kinetics. Cells were treated with the fusion protein and lysed with 0.9% Triton X-100 solution without trypsinization, after which the overall β-gal activity in the cells was measured. Furthermore, in order to measure the authentic trnsduction amount of β-gal imported into the cells, the cells were trypsinized following the treatment with fusion protein, and then examined the amount of the β-gal activity imported into the cells in the same conditions (see FIG. 8).

[2] = design: species or system BALB/c mice; conditions: mouse, in vivo, iv
Experimental: To elucidate whether the CTP of this invention can deliver its fusion partner into cells in vivo as well as into cells in vitro, BALB/c mice were injected i.p. with 25 μg/(g of mouse) of CTP-β-gal, PTD-β-gal, MTS-β-gal fusion protein or β-gal protein, or injected i.v. via tail vein with 100 μg/mouse of fusion proteins. Four hr after injection, mice were euthanized and skinned, and their peritoneal cavities were dissected, followed by washing three times with a PBS buffer. After fixation with a fixing solution, whole body was stained in X-gal solution. Each organ was extracted and the β-gal activity was measured.

[3] = molecular target: T1, XIAP (X-linked inhibitor of apoptosis protein) (Homo sapiens, UniProt P98170); assay: Inhibition of XIAP function: UV-induced apoptosis of XIAP-transfected Jurkat E6 cells (Annexin V FACS); assay type: cell-based; conditions: 0.1, 0.5, 1 μg/ml peptide, 2 hr
T1 construct: expressed in transfected cells; host or cells: Jurkat E6
T1 sequence (P98170 whole entry, species assumed): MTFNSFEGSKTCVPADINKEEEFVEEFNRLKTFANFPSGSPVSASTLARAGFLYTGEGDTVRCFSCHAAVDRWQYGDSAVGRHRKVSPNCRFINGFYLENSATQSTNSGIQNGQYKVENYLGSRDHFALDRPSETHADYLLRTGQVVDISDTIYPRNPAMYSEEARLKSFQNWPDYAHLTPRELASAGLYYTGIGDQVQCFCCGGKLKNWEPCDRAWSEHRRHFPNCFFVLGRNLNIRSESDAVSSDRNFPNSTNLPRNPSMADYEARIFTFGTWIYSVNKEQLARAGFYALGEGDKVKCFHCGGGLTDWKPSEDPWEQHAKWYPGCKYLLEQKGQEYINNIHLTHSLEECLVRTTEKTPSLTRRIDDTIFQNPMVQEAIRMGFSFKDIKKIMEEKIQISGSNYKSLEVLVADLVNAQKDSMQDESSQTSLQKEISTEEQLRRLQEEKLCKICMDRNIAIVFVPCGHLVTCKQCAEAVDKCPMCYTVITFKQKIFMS
Experimental: Since the first amino acid, alanine, of the 7-amino acid sequence at the N-terminal of the Smac/DIABLO peptide is pivotal in binding to XIAP, as reported previously, CTP was linked to C-terminal of the Smac/DIABLO peptide to prepare Smac/Diablo-CTP-FITC peptide. For detection, FITC was conjugated at the C-terminal of the peptide: Smac/Diablo-CTP-FITC ([…]-FITC).
Jurkat E6 (2×10^5 cell/ml) were transfected with 10 μg of pcDNA3-XIAP using a transfection reagent, GenePORTER 2 (1 μl/μg DNA) and cultured for 2 days at 37° C. in RPMI containing 10% FBS. Two days later, the cells were washed twice with 1× PBS, and treated with Smac/Diablo-CTP-FITC peptide (synthesized at HHMI, KECK BIOTECHNOLOGY RESOURCE CENTER) for 2 hr at 37° C. in a serum free media at concentrations of 0.1 μg/ml, 0.5 μg/ml and 1 μg/ml. Then, to measure the extent of apoptosis, the cells were exposed to UV light (40 W) for 50 sec in a culture hood. After 6 hr, the cells were washed twice with 1 × PBS and the apoptozed cells were measured by FACS using Annexin V-FITC apoptosis detection kit (BD Biosciences Pharmingen. Cot: 556547).

| apoptosis of cells transfected with 10 μg pcDNA-XIAP DNA [3] | Substance | β-gal activity in organ sections (thymus, heart, spleen, liver, kidney) [1] | transduction potential / import into cells over time (HeLa cells) | β-gal activity in auxiliary, inguinal and popliteal lymph nodes [2] |
| --- | --- | --- | --- | --- |
|  | β-gal: only β-galactosidase protein, negative control | little or no β-gal activity in the inner side | not to be imported into cells with the lapse of time | not observed |
| greatly increased | AVPIAQKSEGGRRARRRRRRK-FITC (AVPIAQKSEGGRRARRRRRRK-{FITC′}) [Smac/Diablo-CTP-FITC, N-terminal Smac/DIABLO peptide linked to CTP, FITC at the C-terminal] |  |  |  |

From patent US7101844B2, “Cytoplasmic transduction peptides and uses thereof” (Creagene, Inc., priority 2002, dated 2006)
